Results on 77 sequences are retold here after the supplement of paper PMC7877785.

The series in a line: self-splicing fitness, log relative to wild type (ln ratio); higher = more splicing; Tetrahymena group I intron in knt gene, E. coli kanamycin selection, DiMSum; sequences stand for … in CUCUCU…GGAGGGAAAAGUUAUCAGGCAUGCACCUGGUAGCUAGUCUUUAAACCAAUAGAUUGCAUCGGUUUAAAAGGCAAGACCGUCAAAUUGCGGGAAAGGGGUCAACAGCCGUUCAGUACCAAGUCUCAGGGGAAACUUUGAGAUGGCCUUGCAAAGGGUAUGGUAAUAAGCUGACGGACAUGGUCCUAACCACGCAGCCAAGUCCUAAGUCAACAGAUCUUCUGUUGAUAUGGAUGCAGUUCACAGACUAAAUGUCGGUCGGGGAAGAUGUAUUCUUCUCAUAAGAUAUAGUCGGACCUCUCCUUAAUGGGAGCUAGCGGAUGAAGUGAUGCAACACUGGAGCCGCUGGGAACUAAUUUGUAUGCGAAAGUAUAUUGAUUAGUUUUGGAGUACUCGUGGUCG
The method, boiled down:
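Colonies from six replicate transformations of E. coli BL21(DE3) were pooled and amplicon-sequenced on an Illumina HiSeq 2500. The library placed an intron with all eight P1ex-region nucleotides randomised inside the knt kanamycin-resistance gene on pET-22b(+), and cells grew overnight at 37°C or 30°C on LB agar with or without 25 μg/mL kanamycin (plus 100 μg/mL carbenicillin, 50 μM IPTG, 0.2% rhamnose). Fitness is the DiMSum error-weighted combination of wild-type-normalised replicate fold changes, kanamycin versus none.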

± gives the uncertainty stated by the source.

For GCCUAGCAAUAUUACGGCGG, the “self-splicing fitness (ln)” value reads like this: (30 °C) -3.45 ± 0.24; (37 °C) -2.44 ± 0.35.

Regarding GGCAAGCAAUAUUACGGCGC, the “self-splicing fitness (ln)” value is, setting by setting: (30 °C) -0.3 ± 0.082; (37 °C) -0.265 ± 0.12. As for AGAUAGCAAUAUUACGGCCA, the “self-splicing fitness (ln)” value is 0.117 ± 0.33 (30 °C) and -0.323 ± 0.26 (37 °C).

Regarding UCAAAGCAAUAUUACGAAGC, the “self-splicing fitness (ln)” value (30 °C) is -3.5 ± 0.33 and the “self-splicing fitness (ln)” value (37 °C) was -1.84 ± 0.38. For AGCCAGCAAUAUUACGUUUU the same measures were -3.78 ± 0.14 and -2.06 ± 0.11. On the same counts, the results for AAGCAGCAAUAUUACGUACA are -1.43 ± 0.091 and -0.617 ± 0.11.

Turning to AUUGAGCAAUAUUACGUGGA, the “self-splicing fitness (ln)” value is -2.87 ± 0.26 (30 °C) and -1.61 ± 0.21 (37 °C). UUGAAGCAAUAUUACGCAAA: the “self-splicing fitness (ln)” value is -0.591 ± 0.13 (30 °C) and -0.121 ± 0.14 (37 °C). Turning to UCUCAGCAAUAUUACGAGAA, the “self-splicing fitness (ln)” value reads like this: (30 °C) -2.45 ± 0.29; (37 °C) -0.803 ± 0.2. On the same counts, the results for UCACAGCAAUAUUACGCUGC are -2.78 ± 0.22 and -2.09 ± 0.23. As to UUUGAGCAAUAUUACGGCUC, the “self-splicing fitness (ln)” value reads like this: (30 °C) -2.38 ± 0.42; (37 °C) -1.39 ± 0.46. With UCUGAGCAAUAUUACGUCUU, the “self-splicing fitness (ln)” value runs as follows: (30 °C) -2.36 ± 0.21; (37 °C) -2.9 ± 0.24. For ACGAAGCAAUAUUACGAAUG, the “self-splicing fitness (ln)” value is, setting by setting: (30 °C) -1.51 ± 0.11; (37 °C) -2.67 ± 0.18. UGAUAGCAAUAUUACGGCAU: the “self-splicing fitness (ln)” value is, setting by setting: (30 °C) -2.68 ± 0.13; (37 °C) -1.41 ± 0.13. For GGGAAGCAAUAUUACGUAUA the same measures were -2.79 ± 0.15 and -0.738 ± 0.094. For AGCUAGCAAUAUUACGCUUU the same measures were -3.48 ± 0.25 and -2.57 ± 0.23. On the same counts, the results for GUGAAGCAAUAUUACGGAUG are -0.987 ± 0.07 and -0.586 ± 0.098.

As to UACCAGCAAUAUUACGGGUC, the “self-splicing fitness (ln)” value by setting is: (30 °C) -2.46 ± 0.13; (37 °C) -1.99 ± 0.18. For UGUUAGCAAUAUUACGUCCA the same measures were -0.514 ± 0.071 and 0.305 ± 0.13. On the same counts, the results for AUGAAGCAAUAUUACGUCUU are -2.04 ± 0.081 and -1.44 ± 0.087. For CUCCAGCAAUAUUACGCAUA, where the note is “37 °C”, the “self-splicing fitness (ln)” value was -2.21 ± 0.29. The same measure, in the same setting: in the case of UCCGAGCAAUAUUACGAGUC it was -2.16 ± 0.22. With UCGAAGCAAUAUUACGAUAU, the “self-splicing fitness (ln)” value by setting is: (30 °C) -2.63 ± 0.31; (37 °C) -1.52 ± 0.32. For UCAAAGCAAUAUUACGUAGG the same measures were -1.07 ± 0.072 and -0.463 ± 0.096.

As for AGCUAGCAAUAUUACGUGCG, the “self-splicing fitness (ln)” value was -1.02 ± 0.066 (30 °C) and -0.499 ± 0.091 (37 °C). On the same counts, the results for ACUGAGCAAUAUUACGAUAA are -2.94 ± 0.26 and -2.75 ± 0.32. On the same counts, the results for CUAAAGCAAUAUUACGGGAU are -1.86 ± 0.087 and -0.984 ± 0.12.

On to CGUCAGCAAUAUUACGCCUC, for which the “self-splicing fitness (ln)” value (37 °C) is -3.1 ± 0.34. For the sequence CCCGAGCAAUAUUACGGAGA, the “self-splicing fitness (ln)” value (30 °C) was -3.28 ± 0.14 and the “self-splicing fitness (ln)” value (37 °C) was -1.36 ± 0.11. Turning to AGUAAGCAAUAUUACGCCCA, the “self-splicing fitness (ln)” value (30 °C) is -1.19 ± 0.37. AAUGAGCAAUAUUACGCACU: the “self-splicing fitness (ln)” value is -1.07 ± 0.11 (30 °C) and 0.105 ± 0.15 (37 °C). Turning to GUCCAGCAAUAUUACGAGUA, the “self-splicing fitness (ln)” value (30 °C) was -2.36 ± 0.16 and the “self-splicing fitness (ln)” value (37 °C) was -0.787 ± 0.12. On the same counts, the results for AAACAGCAAUAUUACGGUAG are -2.8 ± 0.12 and -2.02 ± 0.12. On the same counts, the results for ACAAAGCAAUAUUACGUGAG are -0.439 ± 0.049 and -0.4 ± 0.079. On the same counts, the results for UGUGAGCAAUAUUACGGGUC are -4.25 ± 0.33 and -2.41 ± 0.19.

For GAAAAGCAAUAUUACGGCGA, the “self-splicing fitness (ln)” value (30 °C) is -0.334 ± 0.07 and the “self-splicing fitness (ln)” value (37 °C) is -0.204 ± 0.074.

Consider GAGCAGCAAUAUUACGAAUU, for which the “self-splicing fitness (ln)” value is -1.95 ± 0.14 (30 °C) and -1.45 ± 0.15 (37 °C). On the same counts, the results for ACUUAGCAAUAUUACGGAGU are -3.58 ± 0.47 and -3.1 ± 0.3. On the same counts, the results for CGUUAGCAAUAUUACGUGGC are -2.5 ± 0.25 and -2.75 ± 0.25.

On to GCACAGCAAUAUUACGCGGU, for which the “self-splicing fitness (ln)” value reads like this: (30 °C) -4.01 ± 0.2; (37 °C) -1.87 ± 0.11.

In the case of UGUGAGCAAUAUUACGCAAC, the “self-splicing fitness (ln)” value is -2.24 ± 0.28 (30 °C) and -2.4 ± 0.46 (37 °C).

Take GCGAAGCAAUAUUACGUAGU: the “self-splicing fitness (ln)” value reads like this: (30 °C) -3.8 ± 0.34; (37 °C) -2.13 ± 0.18.

With UGUUAGCAAUAUUACGGGAA, the “self-splicing fitness (ln)” value was -1.84 ± 0.24 (30 °C) and -0.696 ± 0.2 (37 °C). On the same counts, the results for GGUCAGCAAUAUUACGACGG are -0.435 ± 0.14 and -0.175 ± 0.16. Take ACAUAGCAAUAUUACGCAGC: for the setting “37 °C”, the “self-splicing fitness (ln)” value is -3.15 ± 0.31. For the sequence UCGCAGCAAUAUUACGACAA, the “self-splicing fitness (ln)” value runs as follows: (30 °C) -1.14 ± 0.19; (37 °C) -1.48 ± 0.2. On the same counts, the results for AAACAGCAAUAUUACGUCGA are -0.86 ± 0.065 and -0.774 ± 0.073. On the same counts, the results for UAUAAGCAAUAUUACGAAUG are -1.24 ± 0.087 and -0.222 ± 0.11. On the same counts, the results for GAAGAGCAAUAUUACGGCUG are -2.1 ± 0.16 and -1.22 ± 0.18. ACGCAGCAAUAUUACGACUC: the “self-splicing fitness (ln)” value reads like this: (30 °C) -0.833 ± 0.08; (37 °C) 0.365 ± 0.096. Consider UACAAGCAAUAUUACGAGUU, for which the “self-splicing fitness (ln)” value is, setting by setting: (30 °C) -2.14 ± 0.069; (37 °C) -0.96 ± 0.074. For GUGGAGCAAUAUUACGGUCA the same measures were -2.12 ± 0.17 and -1.23 ± 0.13. Turning to CCACAGCAAUAUUACGAACC, the “self-splicing fitness (ln)” value (30 °C) is -3.86 ± 0.32 and the “self-splicing fitness (ln)” value (37 °C) was -2.46 ± 0.35. On the same counts, the results for UCUUAGCAAUAUUACGCCUG are -2.25 ± 0.24 and -1.51 ± 0.27.

In the case of UGUCAGCAAUAUUACGAUCA, the “self-splicing fitness (ln)” value is -0.048 ± 0.086 (30 °C) and -0.0719 ± 0.11 (37 °C). CUCUAGCAAUAUUACGGCUU: the “self-splicing fitness (ln)” value is -3.45 ± 0.32 (30 °C) and -3.52 ± 0.42 (37 °C). In the case of UAGCAGCAAUAUUACGGCCU, the “self-splicing fitness (ln)” value was -0.225 ± 0.093 (30 °C) and 0.118 ± 0.12 (37 °C). For GGCCAGCAAUAUUACGGCCU the same measures were -3.58 ± 0.23 and -2.42 ± 0.27. For AUCGAGCAAUAUUACGAGGA the same measures were -1.16 ± 0.4 and -2.07 ± 0.31. For GGUUAGCAAUAUUACGCAGG the same measures were -3.31 ± 0.24 and -2.05 ± 0.2. For GACAAGCAAUAUUACGCCCU, the “self-splicing fitness (ln)” value reads like this: (30 °C) -0.581 ± 0.14; (37 °C) 0.33 ± 0.15. For UUUUAGCAAUAUUACGAUUG, the “self-splicing fitness (ln)” value was -1.52 ± 0.14 (30 °C) and -0.255 ± 0.16 (37 °C). For the sequence CCUAAGCAAUAUUACGCAAG, the “self-splicing fitness (ln)” value (30 °C) was -4.71 ± 0.46. With CAAUAGCAAUAUUACGAACG, the “self-splicing fitness (ln)” value is, setting by setting: (30 °C) -0.128 ± 0.053; (37 °C) 0.24 ± 0.07. Turning to CUCGAGCAAUAUUACGGGGG, the “self-splicing fitness (ln)” value (30 °C) is -4.18 ± 0.42. With AUAUAGCAAUAUUACGGAUA, the “self-splicing fitness (ln)” value was -2.76 ± 0.31 (30 °C) and -1.63 ± 0.3 (37 °C).

For the sequence ACCUAGCAAUAUUACGAUCC, the “self-splicing fitness (ln)” value (30 °C) is -2.35 ± 0.17 and the “self-splicing fitness (ln)” value (37 °C) is -1.15 ± 0.2.

As for GAAUAGCAAUAUUACGGUUG, the “self-splicing fitness (ln)” value is, setting by setting: (30 °C) -1.27 ± 0.092; (37 °C) -0.561 ± 0.13. On to GCAGAGCAAUAUUACGCAUC, for which the “self-splicing fitness (ln)” value (30 °C) is -3.14 ± 0.34.

For AAUGAGCAAUAUUACGCUUU, the “self-splicing fitness (ln)” value (30 °C) was -3.41 ± 0.23 and the “self-splicing fitness (ln)” value (37 °C) is -2.34 ± 0.31. For CACCAGCAAUAUUACGUUUU the same measures were -3.95 ± 0.15 and -3.22 ± 0.18.

On to AACUAGCAAUAUUACGUACC, for which the “self-splicing fitness (ln)” value runs as follows: (30 °C) -1.14 ± 0.1; (37 °C) -0.0487 ± 0.14. Turning to AUACAGCAAUAUUACGAAGU, the “self-splicing fitness (ln)” value is -3.31 ± 0.12 (30 °C) and -1.22 ± 0.11 (37 °C).

ACUAAGCAAUAUUACGUUAA: the “self-splicing fitness (ln)” value is, setting by setting: (30 °C) -2.77 ± 0.14; (37 °C) -2.7 ± 0.18. For GGCAAGCAAUAUUACGGCUA the same measures were -0.251 ± 0.11 and 1.23 ± 0.15. On the same counts, the results for GAGAAGCAAUAUUACGAUCU are -1.66 ± 0.097 and -0.515 ± 0.095.

With CUCAAGCAAUAUUACGUGGC, the “self-splicing fitness (ln)” value is -4.37 ± 0.22 (30 °C) and -2.24 ± 0.14 (37 °C).
